Key:
[1] = molecular target: T1, FnCas12a ΔBH (Francisella novicida, UniProt A0Q7Q2 1-1300, del953-969); assay: EMSA
[2] = molecular target: T2, FnCas12a ΔBH/Δh1 (Francisella novicida, UniProt A0Q7Q2 1-1300, del953-1000); assay: EMSA
[3] = molecular target: T3, FnCas12a Δh1 (Francisella novicida, UniProt A0Q7Q2 1-1300, del972-1000); assay: EMSA
[4] = molecular target: FnCas12a ΔΔBH (Francisella novicida, UniProt A0Q7Q2 1-1300, del953-971); assay: EMSA
[5] = molecular target: T1, FnCas12a ΔBH; assay: EMSA; remark: listed apart in the source
[6] = molecular target: T2, FnCas12a ΔBH/Δh1; assay: EMSA; remark: listed apart in the source
[7] = molecular target: T3, FnCas12a Δh1; assay: EMSA; remark: listed apart in the source
[8] = molecular target: FnCas12a WT (Francisella novicida, UniProt A0Q7Q2 1-1300); assay: mass photometry

B1: crRNA-Cy5 (43 nt) (structured_RNA)
RNA: AAUUUCUACUGUUGUAGAUGUGAUAAGUGGAAUGCCAUGUGGG
- binding signal [1]: ~50 % of WT
- binding signal [2]: 22.9 % of WT
- binding signal [3]: 10.7 % of WT

B2: crRNA + 58 bp target DNA MM 0 (labeled) (mixed)
RNA: AAUUUCUACUGUUGUAGAUGUGAUAAGUGGAAUGCCAUGUGGG
DNA 1: ACTCAATTTTGACAGCCCACATGGCATTCCACTTATCACTAAAGGCATCCTTCCACGT
DNA 2: ACGTGGAAGGATGCCTTTAGTGATAAGTGGAATGCCATGTGGGCTGTCAAAATTGAGT
- binding result [4]: no binding
- binding result [5]: binds
- binding result [6]: no binding
- binding result [7]: no binding

B3: crRNA (43 nt) (structured_RNA)
RNA: AAUUUCUACUGUUGUAGAUGUGAUAAGUGGAAUGCCAUGUGGG
- binding result [8]: binds
